B1: TPR t1 (parent)
chain: GACCAAUCUGCCCUCAGAGCUCGAGAACAUCUUCGGAUGCAGAGGAGGCAGGCUUCGGUGGCGCGAUAGCGCCAACGUCCUCAACCUCCAAUGCAUCCCACCACAUGAUGAUGCCUGAAGAGCCUUGGUUUUUUG

Variants of: B1
Experiment: polymerase ribozyme fitness, log enrichment relative to wild type (log ratio); higher = more active; in vitro selection for triplet polymerase activity
How it was run: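 Frozen incubation at −7 °C formed the core of a single, triplicate in vitro selection round applied to PCR-built, transcribed mutant libraries of each subunit of a heterodimeric triplet polymerase ribozyme. Extended constructs were gel-excised, captured with streptavidin beads and amplified by RT-PCR, and input and output libraries were Illumina-sequenced with a filter of ≥10 input reads and ≥1 read per output. Fitness is the logarithm of genotype enrichment relative to wild-type enrichment, with inverse-variance-weighted replicate averaging, and the logarithm is base 2.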

| Variant | polymerase ribozyme fitness (log ratio) |
| --- | --- |
| GACCAAUCUGCCCUCAGAGCUCGAGAACAUCUUCGGAUGCAGAGGAGGCAGGCUUCGGUGACGCGAUAGCGCCAACGUUCUCAACCUACAAUGCAUCCCACCACAUGAUGAUGCCUGAAGAGCCUUGGGUUUUUG [G61A C79U C88A U129G] | -1.53 |
| GACCAAUCUGCCCUCAGAGCUCGAGAACAUCUUCGGAUGCAGAGGAGGCAGGCUUCGGUGACGCGAUAGCGCCAACGUCCUCAACCUCCAAGGCAUCCCACCACAUGAUGAUUCCUGAAGAGCCUUGGUUUUUUG [G61A U92G G113U] | -4.27 |
| GACCAAUCUGCCCUCAGAGCUCGAGAACAUCUUCGGAUGCAGAGGAGGCAGGCUUCGGUGACGCGAUAGCGCCAACGUACUCAACCUCCAAUGCAUCCCACCACAUGAUGAUGACUGAAGAGCCUUGGUUUUUUG [G61A C79A C114A] | -3.21 |
| GACCAAUCUGCCCUCAGAGCUCGAGAACAUCUUCGGAUGCAGAGGAGGCAGGCUUCGGUGACGCGAUAGCGCCAACGUUCUCAACCUCCAAUGCAUCCCACCAAAUGAUGAUGCCUGAAGAGCAUUGGUUUUUUG [G61A C79U C104A C124A] | 0.783 |
| GACCAAUCUGCCCUCAGAGCUCGAGAACAUCUUCGGAUGCAGAGGAGGCAGGCUUCGGUGACACGAUAGCGCCAACGUCCUCAACCUCCAAUGCAUCCCACCACAUGAUGAUGCCUGAAGAGCCUUGGUUUUUUG [G61A G63A] | -4.85 |
| GACCAAUCUGCCCUCAGAGCUCGAGAACAUCUUCGGAUGCAGAGGAGGCAGGCUUCGGUGACGCGAUAGCGCCAACGUCCUCAACCUCCAAUGCAUCCCACCACAUGAUGAUGCCUGAAUAGCCUUGGUUUUUUG [G61A G120U] | 0.215 |
| GACCAAUCUGCCCUCAGAGCUCGAGAACAUCUUCGGAUGCAGAGGAGGCAGGCUUCGGUGACGCGAUAGCGCCAACGUCCUCAACCUCCAAUGCAUCCCACCACAUGAUGAUGCCUGAACAGCCUUGGUUUUUUG [G61A G120C] | 1.14 |
| GACCAAUCUGCCCUCAGAGCUCGAGAACAUCUUCGGAUGCAGAGGAGGCAGGCUUCGGUGACGCGAUAGCGCCAACGUCCUCAACCUGCAAUGCAUCCCACCACAUGAUGAUGCCUGAAGAGCCUUGGAUUUUUG [G61A C88G U129A] | -1.82 |
| GACCAAUCUGCCCUCAGAGCUCGAGAACAUCUUCGGAUGCAGAGGAGGCAGGCUUCGGUGACGCGAUACCGCCAACGUCCUCAACCUCCAAUGCAUCCCACCACAUGAUGAUGCCUGAAGAGCCUUGGUUUUUUG [G61A G69C] | -3.18 |
| GACCAAUCUGCCCUCAGAGCUCGAGAACAUCUUCGGAUGCAGAGGAGGCAGGCUUCGGUGACGCGAUAGCGCCAACGUCCUCAACCUUCAAUGCAUCCCACCACAUGAUGAUGCCUGAAGAGCCUUGGUUGUUUG [G61A C88U U131G] | -0.555 |
| GACCAAUCUGCCCUCAGAGCUCGAGAACAUCUUCGGAUGCAGAGGAGGCAGGCUUCGGUGACGCGAUAGCGCCAACGUCCUCAAGCUCCAAUACAUCCCAGCACAUGAUGAUGCCUGAAGAGCCUUGGUUUUUUG [G61A C85G G93A C101G] | -2.53 |
| GACCAAUCUGCCCUCAGAGCUCGAGAACAUCUUCGGAUGCAGAGGAGGCAGGCUUCGGUGACGCGAUAGCGCCAACGUCCUCAACCUCCAAUGCAUCCCACCACACGAUGAUGCCUGAAGAACCUUGGUUUUUUG [G61A U106C G122A] | -0.878 |
| GACCAAUCUGCCCUCAGAGCUCGAGAACAUCUUCGGAUGCAGAGGAGGCAGGCUUCGGUGACGCGAUAGCGCCAACGUCCUCAACCUCCAAAGCAUCCCACCACAUGAUGAUGCCUGAAGAGACUUGGUUUUUUG [G61A U92A C123A] | -2.16 |
| GACCAAUCUGCCCUCAGAGCUCGAGAACAUCUUCGGAUGCAGAGGAGGCAGGCUUCGGUGACGCGAUAGCGCCAACGUCCUCAACCUCCAAUUCAUCCCACCACAUGAUGAUGCCUGAAGAGCCUUGGUUUUUUG [G61A G93U] | -0.737 |
| GACCAAUCUGCCCUCAGAGCUCGAGAACAUCUUCGGAUGCAGAGGAGGCAGGCUUCGGUGACGCGAUAGCGCCAACGUCCUCAACCUCCAAUGCAUACCACCACAUGAUGAUGCCUGAAGAGCUUUGGUUUUUUG [G61A C97A C124U] | -3.09 |
| GACCAAUCUGCCCUCAGAGCUCGAGAACAUCUUCGGAUGCAGAGGAGGCAGGCUUCGGUGACGCGAUAGCGCCAACGUCCUCAACCUCCAAUGCAUCCCACCACAUGAUGAUGCCUGAAGAGCCUUAGUUUUUUG [G61A G127A] | -2.37 |
| GACCAAUCUGCCCUCAGAGCUCGAGAACAUCUUCGGAUGCAGAGGAGGCAGGCUUCGGUGACGCGAUAGCGCCAACGUCCUCAACCUCCAAUGCAUCCCACCACAUGAUGAUGCCUGAAGAGCCUUUGUUUUUUG [G61A G127U] | -1.35 |
| GACCAAUCUGCCCUCAGAGCUCGAGAACAUCUUCGGAUGCAGAGGAGGCAGGCUUCGGUGACGCGAUAGCGCCAACGUCCUCAACCUCCAAUGCAUGCCACCACAUGAUGAUGCCUGAAGAGCUUUGGUUUUUUG [G61A C97G C124U] | -2.04 |
| GACCAAUCUGCCCUCAGAGCUCGAGAACAUCUUCGGAUGCAGAGGAGGCAGGCUUCGGUGACGCGAUAGCGCCAACGUCCACAACCUCCAAUGCAUCCCACCACAUGAUGAUGCCUGAAGAGCCUUGGUUUUUUG [G61A U81A] | -0.273 |
| GACCAAUCUGCCCUCAGAGCUCGAGAACAUCUUCGGAUGCAGAGGAGGCAGGCUUCGGUGACGCGAUAGCGCUAACGACCUCAACCUCCAAUGCAUCCCACCACAUGAUGAUGCCUGAAGAGCCUUGGUUUUUUG [G61A C73U U78A] | -0.265 |
| GACCAAUCUGCCCUCAGAGCUCGAGAACAUCUUCGGAUGCAGAGGAGGCAGGCUUCGGUGACGCGAUAGCGCCAACAUCCUCAACCUCCAGUGCAUCCCACCACAUGAUGAUGCCUGAAGAGCCUUGGUUUUUUG [G61A G77A A91G] | -2.58 |

| Variant | polymerase ribozyme fitness (log ratio) |
| --- | --- |
| GACCAAUCUGCCCUCAGAGCUCGAGAACAUCUUCGGAUGCAGAGGAGGCAGGCUUCGGUGACGCGAUAGCGCCAACGCCCUCAACAUCCAAUGCCUCCCACCACAUGAUGAUGCCUGAAGAGCCUUGGUUUUUUG [G61A U78C C86A A95C] | -1.85 |
| GACCAAUCUGCCCUCAGAGCUCGAGAACAUCUUCGGAUGCAGAGGAGGCAGGCUUCGGUGACGCGAUAGCGCCAACGCCCUCAACCUCCAAUGCCUCCCACCACAUGAUGAUGCCUGAAGAGACUUGGUUUUUUG [G61A U78C A95C C123A] | 0.138 |
| GACCAAUCUGCCCUCAGAGCUCGAGAACAUCUUCGGAUGCAGAGGAGGCAGGCUUCGGUGACGCGAUAGCGCCAACGUCCUCAACCUCCAAUGCAUCCCACCACAUGAUGAUGCCUGAAAAGUCUUGGUUUUUUG [G61A G120A C123U] | 1.5 |
| GACCAAUCUGCCCUCAGAGCUCGAGAACAUCUUCGGAUGCAGAGGAGGCAGGCUUCGGUGACGCGAUAGCGCCAACGUCCUCAACCGCCAAUGCAUCCCACCACAUGAUGAUGCCUGAAGAGCCUUGGUUUUUUG [G61A U87G] | 0.506 |
| GACCAAUCUGCCCUCAGAGCUCGAGAACAUCUUCGGAUGCAGAGGAGGCAGGCUUCGGUGACGCGAUAGCGCCAACGUCCUCAACCUCAUGUGCAUCCCACCACAUGAUGAUGCCUGAAGAGCCUUGGUUUUUUG [G61A C89A A90U A91G] | -1.77 |
| GACCAAUCUGCCCUCAGAGCUCGAGAACAUCUUCGGAUGCAGAGGAGGCAGGCUUCGGUGACGCGAUAGCGCCAACGUCCUCAACCUCCAAUACAUCCCACCACGUGAUGAUGCCUGAAGAACCUUGGUUUUUUG [G61A G93A A105G G122A] | -5.32 |
| GACCAAUCUGCCCUCAGAGCUCGAGAACAUCUUCGGAUGCAGAGGAGGCAGGCUUCGGUGACGCGAUAGCGCCAACGUCCUCAACCUCCAAUACAUACCACCACAUGAUGAUGCCUGAAUAGCCUUGGUUUUCUG [G61A G93A C97A G120U U133C] | -6.04 |
| GACCAAUCUGCCCUCAGAGCUCGAGAACAUCUUCGGAUGCAGAGGAGGCAGGCUUCGGUGACGCGAUAGCGCCAACGUCCUCAACCUCCAAUGCAUCCCACCACAUGAUGAUGUCUGAAGAGCCUUGGUUUUUUG [G61A C114U] | -1.49 |
| GACCAAUCUGCCCUCAGAGCUCGAGAACAUCUUCGGAUGCAGAGGAGGCAGGCUUCGGUGACGCGAUAGCGCCAACGUCCUCAACCUCCAAUGCAUCCCACCACAUGAUGAUGACUGAAGAGCCUUGGUUUUUUG [G61A C114A] | -0.372 |
| GACCAAUCUGCCCUCAGAGCUCGAGAACAUCUUCGGAUGCAGAGGAGGCAGGCUUCGGUGACGCGAUAGCGCCAACGUCCUCAACCUUAAAUGCAUCCCACCACAUGAUGAUGCCUGAAGAGCCUUGGUUUUUUG [G61A C88U C89A] | -1.82 |
| GACCAAUCUGCCCUCAGAGCUCGAGAACAUCUUCGGAUGCAGAGGAGGCAGGCUUCGGUGACGCGAUAGCGCAAACGUCCUCAACCUCCAAUGCAUCCCACCACAUGAUGAUGCCUGGAGAGCCUUGGUUUUUUG [G61A C73A A118G] | -1.71 |
| GACCAAUCUGCCCUCAGAGCUCGAGAACAUCUUCGGAUGCAGAGGAGGCAGGCUUCGGUGACGCAAUAGCGCCAACGUCCUCAACCUCCAAUGCAUCCCACCACAUGAUGAUGCCUGAAGAGCCUUGGUUUUUUG [G61A G65A] | -3.94 |
| GACCAAUCUGCCCUCAGAGCUCGAGAACAUCUUCGGAUGCAGAGGAGGCAGGCUUCGGUGACGCGAUAGCGCCAACUUCCUCAACCUCCAAUGCAUCCCACCACAUGAUGAUGCCUGAAGAGCCUUGGUUUUUUG [G61A G77U] | 0.142 |
| GACCAAUCUGCCCUCAGAGCUCGAGAACAUCUUCGGAUGCAGAGGAGGCAGGCUUCGGUGACGCGAUAGCGCCAACGUCCUCAACCUCCAAUGCAUCCCACCACAUGAUGAUGCCUGAAGAGCAUUGGUUUUUUG [G61A C124A] | 1.79 |
| GACCAAUCUGCCCUCAGAGCUCGAGAACAUCUUCGGAUGCAGAGGAGGCAGGCUUCGGUGACGCGAUAGCGCCAACGGCCUCAACCUCCAAUGCAUCCCACCACAUAAUGAUGUCUAAAGAGCCUUGGUUUUUUG [G61A U78G G107A C114U G117A] | -6.96 |
| GACCAAUCUGCCCUCAGAGCUCGAGAACAUCUUCGGAUGCAGAGGAGGCAGGCUUCGGUGACGCGAUAGCGCCAACGUCCUCAACCUCCAAUGCAUCCCACCACACGAUGAUGCCUGAAGAGCCUUGGUUUUUUG [G61A U106C] | 0.151 |
| GACCAAUCUGCCCUCAGAGCUCGAGAACAUCUUCGGAUGCAGAGGAGGCAGGCUUCGGUGACGCGAUAGCGCCAACGUCCUCAACCUCCAAUGCAUCCCACCACAAGAUGAUCCCUGAAGAGCCUUGGUUUUUUG [G61A U106A G113C] | -1.85 |
| GACCAAUCUGCCCUCAGAGCUCGAGAACAUCUUCGGAUGCAGAGGAGGCAGGCUUCGGUGACGCGAUAGCGCCAACGUCCUCAACCUCCAAUGCAUCCCACCACAUGAUGAUCCCUGAAGAGCCUUGGUUUUUUG [G61A G113C] | -1.78 |
| GACCAAUCUGCCCUCAGAGCUCGAGAACAUCUUCGGAUGCAGAGGAGGCAGGCUUCGGUGACGCGAUAGCGCCAACGUCCUCAACCUCCAAUGCAUCCCACGACAUGAUGAUGCCUGAAGAGCCUUGGUUUUUUG [G61A C102G] | -6.12 |
| GACCAAUCUGCCCUCAGAGCUCGAGAACAUCUUCGGAUGCAGAGGAGGCAGGCUUCGGUGACGCGAUAGCGCCAACGUCCUCAACCUCCAAUGCAUCCCACCACAUGAUGAUCCCUGAAGAGCCUUGGUUUUUUA [G61A G113C G135A] | -2.34 |
| GACCAAUCUGCCCUCAGAGCUCGAGAACAUCUUCGGAUGCAGAGGAGGCAGGCUUCGGUGACGCGAUAGCGCCAACGUCCUCAACCUCCAAAGCAUCCCACCACAUGAUGAUGCCUGAAGAGCCUUGGUUUUUUG [G61A U92A] | -2.76 |
